Measured values: paper PMC4585563

Biological target: CTNNBL1^Q238A (human) (UniProt Q8WYA6)
Test: SEC; Superdex 200 10/300, 500 μl of 2 mg/ml protein, 0.5 ml/min, 40 mM Tris-HCl pH 8.0, 150 mM NaCl; molecular weight from calibration standards

**Q.** Which stoichiometry N does the source give for “CTNNBL1^Q238A (from UniProt Q8WYA6 77-563) (domain or fragment)” here?
**A.** 2
